# B1: Anti-TnMUC1 murine monoclonal antibody clone 5E5 (antibody, V domains shown)
# VH: QVQLQQSDAELVKPGSSVKISCKASGYTFTDHAIHWVKQKPEQGLEWIGHFSPGNTDIKYNDKFKGKATLTVDRSSSTAYMQLNSLTSEDSAVYFCKTSTFFFDYWGQGTTLTVSS
# VL: ELVMTQSPSSLTVTAGEKVTMICKSSQSLLNSGDQKNYLTWYQQKPGQPPKLLIFWASTRESGVPDRFTGSGSGTDFTLTISSVQAEDLAVYYCQNDYSYPLTFGAGTKLELK
# notes: also called 5E5 mAb; mAb 5E5
# Target: T1, TnMUC1 in whole cell lysates of DU145 prostate cancer cells (single band of >200 kDa) (UniProt P15941 24-1255, limits assumed, Tn glycoform of MUC1 (aberrant O-glycosylation); sites not stated)
# T1 construct: mature; also called mature TnMUC1
# T1 sequence (P15941 24-1255 limits assumed): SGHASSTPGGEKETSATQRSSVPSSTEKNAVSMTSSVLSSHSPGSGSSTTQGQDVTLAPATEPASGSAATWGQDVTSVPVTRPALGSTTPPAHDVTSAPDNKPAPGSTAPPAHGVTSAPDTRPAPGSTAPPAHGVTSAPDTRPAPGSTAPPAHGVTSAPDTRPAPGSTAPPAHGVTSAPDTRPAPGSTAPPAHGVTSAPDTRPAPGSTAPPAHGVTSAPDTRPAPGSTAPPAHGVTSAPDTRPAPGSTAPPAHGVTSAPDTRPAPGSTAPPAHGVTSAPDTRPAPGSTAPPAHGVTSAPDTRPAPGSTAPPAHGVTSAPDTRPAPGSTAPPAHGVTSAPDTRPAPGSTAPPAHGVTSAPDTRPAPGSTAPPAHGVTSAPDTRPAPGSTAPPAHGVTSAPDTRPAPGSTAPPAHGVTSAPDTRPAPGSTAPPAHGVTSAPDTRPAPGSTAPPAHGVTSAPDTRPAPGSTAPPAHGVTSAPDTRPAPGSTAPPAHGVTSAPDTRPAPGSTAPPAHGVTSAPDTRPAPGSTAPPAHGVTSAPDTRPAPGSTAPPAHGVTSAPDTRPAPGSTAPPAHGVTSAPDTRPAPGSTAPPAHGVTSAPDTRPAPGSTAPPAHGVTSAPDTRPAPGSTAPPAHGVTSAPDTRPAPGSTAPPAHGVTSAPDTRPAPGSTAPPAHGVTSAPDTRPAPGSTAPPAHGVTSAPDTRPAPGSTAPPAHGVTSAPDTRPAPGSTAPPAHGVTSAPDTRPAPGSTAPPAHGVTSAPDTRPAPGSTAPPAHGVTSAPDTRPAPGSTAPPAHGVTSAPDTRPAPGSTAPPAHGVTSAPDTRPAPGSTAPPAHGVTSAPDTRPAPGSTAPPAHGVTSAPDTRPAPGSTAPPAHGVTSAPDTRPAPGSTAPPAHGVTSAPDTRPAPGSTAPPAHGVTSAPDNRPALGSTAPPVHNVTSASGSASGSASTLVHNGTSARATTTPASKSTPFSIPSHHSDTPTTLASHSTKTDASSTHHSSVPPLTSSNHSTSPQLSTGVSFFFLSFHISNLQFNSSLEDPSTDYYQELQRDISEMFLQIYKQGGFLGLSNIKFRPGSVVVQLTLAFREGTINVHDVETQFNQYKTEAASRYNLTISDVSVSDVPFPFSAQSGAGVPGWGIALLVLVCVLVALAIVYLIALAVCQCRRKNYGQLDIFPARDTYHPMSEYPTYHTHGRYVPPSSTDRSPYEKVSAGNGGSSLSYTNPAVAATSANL
# Test: Western blot on whole cell lysates of the prostate cancer cell line DU145
binder,measurement,value
B1,binding result,binds

# — patent US20210338733A1 (University of Pennsylvania, published 2021)
